Experimental data from US20230331835A1 (published 2023).
Blank lines part the entries; values can stand above or below the binder they belong to.

Tests used:
BMECs [1] = experiment: cell binding, apparent equilibrium affinity; apparent Kd; 95% CI 128-179
BMECs [2] = experiment: cell binding, apparent equilibrium affinity; apparent Kd; 95% CI 29-47
BMECs [3] = experiment: cell binding, apparent equilibrium affinity; apparent Kd; 95% CI 27-60
BMECs [4] = experiment: cell binding, apparent equilibrium affinity; apparent Kd; 95% CI 30-74
BMECs [5] = experiment: cell binding, apparent equilibrium affinity; apparent Kd; 95% CI 19-36

- Kd (BMECs [1]): 153 nM
B1: 46.1 (Fc fusion)
chain: QVQLQESGGGLAQPGGSLRLSCAASGFTFSGYWMHWVRQAPGKGLVWVSRIKGDGTDIEYADSVKGRFTISRDNAKNTLYLQMNSLRAEDTAVYYCARDLRQTHWFDSWGQGTLVTVSSGGGGSGGGGSGGGGSQSALTQDPAVSVALGQTVRITCQGDSLRSYYASWYQQKPGQAPVLVMYGENSRPSGIPDRFSGSNSGNTASLIITGAQAEDEADYYCSSRDTSGNHVLFGGGTKLTVLG

- Kd (BMECs [2]): 38 nM
B2: 26 (Fc fusion)
chain: QVELVESGGGLVQPGGSLRLSCAASGFTFSTYWMNWVRQAPGKGLEWVAIINQDGTAEYYVDSVEGRFTISRDNAKNSLYLQMTSLRVEDTAVYYCATPTGDSDYWGQGTLVTVSSGGGGSGGGGSGGGGSSELTQDPAVSVALGQTVRITCQGDSLRSYYATWYQQKPGQAPVAVIYGQNNRPSGIPDRFSGSNSGNTASLTITAALAEDEADYYCHSRDSSGNHVLFGGGTKLTVLG

- Kd (BMECs [5]): 28 nM
B5: 17 (Fc fusion)
chain: QVQLLQSAGALVQPGGSLRLSCAASGFTFSSSTMHWVRQAPGKGLEWVAVVSYDGNTQYYADSVKGRFTISRDNSKNTLSLQMNNLRAEDTAVYYCAGLWGSLLGYFQHWGQGTLVTVSSGGGGSGGGGSGGGGSDIQMTQSPSFLSASVGDRVTITCRASQGVNNYLAWYQQKPGKAPKLLIYAASTLQSGVPSSFSGSGSGTEFTLTISSLQPEDFATYFCQQAHSFPPTFGGGTKLEIKR

The remaining lines, values behind:

B3: 9 (Fc fusion)
chain: QVQLVESGGGVTQPGLSLRLSCAASGFTFSSYAMSWVRQAPGKGLEWVSAISGSGGSTYYADSVKGRFTISRDNSKNTLYLQMNSLRAEDTAVYYCARGWKYFDYWGQGTLVTVSSSGGGSGGGGSGGGGSETTLTQSPSTLSASIGDRVAITCRASEGIYHWLAWYQQKPGKAPKLLIYKASSLASGAPSRFSGSGSGTDFTLTISSLQPDDFATYYCQQYHTISRTFGPGTKVEIKR
- Kd (BMECs [3]): 44 nM

B4: 3 (Fc fusion)
chain: QVQLQESGGGVVQPGRSLRLSCAASGFTFSSYAMHWVRQAPGKGLEWVAVISYDGSNKYYADSVKGRFTISRDNSKNTLYLQMNSLRAEDTAVYYCARDSKGQSVRNRFDPWGQGTLVTVSSGGGGSGGGGSGGGGSSELTQDPAVSVALGQTVRITCQGDNLRSYYASWYQQRPGQAPILVLYANTHRPSSIPDRFSGSSSGNTASLTITGAQAEDEADYYCNSRDSSGNLVVFGGGTKLTVLG
- Kd (BMECs [4]): 52 nM
